Article PMC9170038

B1: Eterna 7707528 (Exclusion - Tryptophan A) (ssRNA)
RNA: GGGAUGUAGUGAUGUUAUAUUGGAUGUAGACGAGGACCGGUACGGCCGCCACUCGUGAUGGCUGCUAGCACGUUUCGAUGUUUGC
B2: Eterna 12668 (Exclusion 3) (ssRNA)
RNA: UAAAAGCUAGGAUAUACAUGAGGAUCACCCAUGUCACGGGUCCACUCAUCCUAUACGUGUAGAAGGAGCGACCC
B3: Eterna 6373941 (Exclusion NG 3) (ssRNA)
RNA: GUCACGGUUAAUUCCGUGACGCGCAAACCUUGAGGAUCACCCAAGGAUAUCGACGUCAAUGACGUCGAGAAGGUGGUUGAGCGC
B4: Eterna 7652698 (Same State - Arginine A) (ssRNA)
RNA: CGGUCGGUCGGCCGGUGAUUAUGGGAUGAAGGAGCGUGGGAAGCUACAGGUAGGUCGCAUCCGAAACAUCACGAUCACGGAUGUU
B5: Eterna 7670795 (Exclusion - Tryptophan B) (ssRNA)
RNA: GGAUAGGACACGGCCGCCACUACCUAGGAUACUAGCAACAUUUGGGUACGUGAGGAUCACCCACGUAGGACCGGGUGUCCUAUCG
B6: Eterna 7653809 (Same State - Theophylline B) (ssRNA)
RNA: UGUAUGUGAUUUGAUACCAGACCAGCUGGUGGUACUUGAGGAACACCCAAGUAGGUUUGGGUCCCUUGGCAGCAAAUCGCAUACU
B7: Eterna 7734981 (Same State - FMN A) (ssRNA)
RNA: UGUGAGCUGUCGACAAAAGUCGACUAAAGCGAGGAUAUGACGAAAGUCAGAAGGCGUCAAUAAUGGAGUGAUGUUCCUGCUCACU
B8: Eterna 6453269 (Small Loop Same State NG 3) (ssRNA)
RNA: CAGCGAUAGCUAAAGUAUCUAUCAGAGGAUAUUCAUGAAACAUGAGGAUCACCCAUGUGAAACUGGGAGAAGGCUGAUAGAUAG
B9: Eterna 6401867 (Inverted Exclusion NG 1) (ssRNA)
RNA: CCGACGCCUCAGAAGGCACUCGCAUAAUGCGAGUGAGGAUAUGAGGAUCACCCAUAUCAACGUCGGAGUCACCGAAACGGUGAC
B10: Eterna 7697396 (Exclusion - Arginine B) (ssRNA)
RNA: UGAUAGGACAGAAGGAGCGGGCUAGUCAAAGACUAGCAAACGUUAAUAACAGGAGUGAUGUUCCAGGUAGGUCGCUGUCCUAUCU
B11: Eterna 1752 (Same State - Tryptophan B) (ssRNA)
RNA: CUUUUACAGUCGGCCGCCACUGACAGCACUUCAAAGACAGUAUAAGGGUAGUGAUGUUACUUUAUCAGGACCGGGACUACCUAAC
B12: Eterna 7662739 (Exclusion - Arginine A) (ssRNA)
RNA: CGCGGGCCACAUGAGGAUCACCCAUGUGAAGGAGCGGCGAAUAAGCCAGGUAGGUCGCGCAUGAAUAAAUCAUGUAGGUGGCGAA
B13: Eterna 6395528 (Inverted Small Loop Exclusion NG 1) (ssRNA)
RNA: ACAUGGUAGUAGAAGGGUAUUACUUUAGAUACAACCAUUUGUUUAGUUUAUACAGGAUAUGCUUACAUGAGGAUCACCCAUGUU
B14: Eterna 6083193 (Exclusion 6) (ssRNA)
RNA: CCAAGUUCGUAGGAUAUAGAUGCCUUAGGGCAAUUAGAAGGAUGGACAUGAGGAUCACCCAUGUCGGAUUCUGU
B15: Eterna 6381351 (Inverted Exclusion NG 3) (ssRNA)
RNA: CGAUAUAUGAAGGGCGAAAGCCCACAUGAGGAUCACCCAUGUAGAAGGCGGGCCGCAACGCGGCCCGAGGAUAUAUAAUAUACA
B16: Eterna 7709739 (Same State - Tryptophan B) (ssRNA)
RNA: UAUAUAGUGACGGCCGCCACUAUAUUAAUGUUUAGGUUAGAGUGAUGUUUUGAUUAAUAUUUUUAUAGGACCGGGUUAUAUGUUA
B17: Eterna 11866 (Sensor v3, turn-off variant 2) (ssRNA)
RNA: CUUAGCCUAAAAUCACGCAAGCUUUCUGCUUGUCUUAAGACAUGAGGAUCACCCAUGUCCGGGCUGAACUUAUGGAA

Molecular target: MS2 coat protein, dlFG mutant (Escherichia phage MS2, UniProt P03612, del68-81insG)
Assay: 4 mM Mg2+; no ligand; RNA-MaP array; 100 mM Tris-HCl pH 7.5, 80 mM KCl, 4 mM MgCl2, 0.1 mg/mL BSA, 1 mM DTT, 0.01 mg/mL yeast tRNA, 0.01% Tween-20; protein 1.5 nM to 3 uM; 37 C (Table S3)
Conditions: chain copies: 2; label: tethered by stalled RNA polymerase

| Binder | Kd [nM] |
| --- | --- |
| B1 | > 3000 |
| B2 | 17.4 |
| B3 | 53.8 |
| B4 | 74.9 |
| B5 | 12.4 |
| B6 | 177 |
| B7 | > 3000 |
| B8 | 14.2 |
| B9 | 11.1 |
| B10 | > 3000 |
| B11 | > 3000 |
| B12 | 18.3 |
| B13 | 9.28 |
| B14 | 15.8 |
| B15 | 7.35 |
| B16 | > 3000 |
| B17 | 18.5 |
